Reference: the RNAGym collection of RNA variant scans (doi:10.1093/molbev/msab373)

B1: Azoarcus group I ribozyme (parent)
chain: GUGCCUUGCGCCGGGAAACCACGCAAGGGAUGGUGUCAAAUUCGGCGAAACCUAAGCGCCCGCCCGGGCGUAUGGCAACGCCGAGCCAAGCUUCGGCGCCUGCGCCGAUGAAGGUGUAGAGACUAGACGGCACCCACCUAAGGCAAACGCUAUGGUGAAGGCAUAGUCCAGGGAGUGGCGAAAGUCACACAAACCGG

Variants of: B1
Test: reverse-splicing fitness (ratio to wild type); higher = more active; in vitro selection; Mg2+ level not given
Summary of the method: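 An in vitro group I ribozyme library with randomized positions was T7-transcribed and gel-purified. In triplicate, 10 pmol RNA in EPPS pH 7.5 was reacted with 50 pmoles of a 30-nt RNA substrate for 1 h at 37 °C across several added MgCl2 levels (1–48 mM), then stopped with EDTA. Products were reverse transcribed from a substrate-complementary primer, PCR-amplified and sequenced (HiSeq 4000). Fitness is a variant's read proportion after selection over that before, normalised to wild type.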

Variant | reverse-splicing fitness
C82A A111U A120G A145U C150A C169U | 0.0069
C82A A111U A120G A145U C150A C169G | 0.00859
C82A A111U A120C C169U U176G | 0.00659
C82A A111U A120C C169U U176C | 0.0158
C82A A111U A120C C169U U176A | 0.0177
C82A A111U A120G C150G C169G | 0.00782
C82A A111U A120G C150G C169A | 0.00926
C82A A111U A120G C150G C169U | 0.00851
C82A A111U A120C C150A C169U U176G | 0.00905
C82A A111U A120C C150A C169U U176C | 0.0167
C82A A111U A120C C150A C169U U176A | 0.0186
C82A A111U A120G A145U C150G C169A U176C | 0.00995
C82A A111U A120G A145U C150G C169A U176A | 0.0086
C82A A111U A120G A145U C150G C169A U176G | 0.00552
C82A A111U A120G A145C C150U C169A U176A | 0.0127
C82A A111U A120G A145C C150U C169A U176C | 0.00677
C82A A111U A120G A145C C150U C169A U176G | 0.00508
C82A A111U A120G A145C C169U U176A | 0.0212
C82A A111U A120G A145C C169U U176G | 0.00478
C82A A111U A120G A145C C169U U176C | 0.0136
C82A A111U A120G A145U C150A U176G | 0.00656

Variant | reverse-splicing fitness
C82A A111U A120G A145U C150A U176A | 0.0128
C82A A111U A120G A145U C150A U176C | 0.0152
C82A A111U A120C A145U C169U | 0.0129
C82A A111U A120C A145U C169G | 0.0114
C82A A111U A120C A145U C169A | 0.00981
C82A A111U A120G A145C C150G U176C | 0.00759
C82A A111U A120G A145C C150G U176A | 0.00504
C82A A111U A120G A145C C150G U176G | 0.00318
C82A A111U A120G C150U C169A | 0.0106
C82A A111U A120G C150U C169G | 0.0105
C82A A111U A120G C150U C169U | 0.00932
C82A A111U A120G A145G C169G U176C | 0.0285
C82A A111U A120G A145G C169G U176G | 0.00424
C82A A111U A120G A145G C169G U176A | 0.021
C82A A111U A120G A145U C169G | 0.00975
C82A A111U A120G A145U C169A | 0.00877
C82A A111U A120G A145U C169U | 0.00974
C82A A111U A120G A145G C150G C169A U176C | 0.0133
C82A A111U A120G A145G C150G C169A U176A | 0.0132
C82A A111U A120G A145G C150G C169A U176G | 0.00821
C82A A111U A120G A145U C150G C169U U176G | 0.00545

Variant | reverse-splicing fitness
C82A A111U A120G A145U C150G C169U U176C | 0.0125
C82A A111U A120G A145U C150G C169U U176A | 0.0104
C82A A111U A120G A145G C150U C169U U176C | 0.0156
C82A A111U A120G A145G C150U C169U U176A | 0.0181
C82A A111U A120G A145G C150U C169U U176G | 0.00618
C82A A111U A120G A145U C150G U176C | 0.00834
C82A A111U A120G A145U C150G U176A | 0.00602
C82A A111U A120G A145U C150G U176G | 0.00424
C82A A111U A120G A145C C150U U176G | 0.00589
C82A A111U A120G A145C C150U U176C | 0.0114
C82A A111U A120G A145C C150U U176A | 0.0105
C82A A111U A120G A145C C169G | 0.0105
C82A A111U A120G A145C C169U | 0.00838
C82A A111U A120G A145C C169A | 0.0074
C82A A111U A120C C150G C169A U176C | 0.0122
C82A A111U A120C C150G C169A U176A | 0.0125
C82A A111U A120C C150G C169A U176G | 0.00717
C82A A111U A120G A145G C150A | 0.0095
C82A A111U A120G A145G C150U | 0.0133
C82A A111U A120G A145G C150G | 0.00699
C82A A111U A120G A145G C169U U176A | 0.0211

Variant | reverse-splicing fitness
C82A A111U A120G A145G C169U U176C | 0.0167
C82A A111U A120G A145G C169U U176G | 0.00504
C82A A111U A120G A145U C150U C169G U176G | 0.00527
C82A A111U A120G A145U C150U C169G U176A | 0.0153
C82A A111U A120G A145U C150U C169G U176C | 0.0147
C82A A111U A120G A145U C169A U176A | 0.012
C82A A111U A120G A145U C169A U176G | 0.00477
C82A A111U A120G A145U C169A U176C | 0.0107
C82A A111U A120G C150U C169G U176G | 0.00517
C82A A111U A120G C150U C169G U176A | 0.0175
C82A A111U A120G C150U C169G U176C | 0.0205
C82A A111U A120G A145G U176G | 0.00714
C82A A111U A120G A145G U176C | 0.0211
C82A A111U A120G A145G U176A | 0.0122
C82A A111U A120G C150U C169A U176A | 0.0156
C82A A111U A120G C150U C169A U176G | 0.00525
C82A A111U A120G C150U C169A U176C | 0.0163
C82A A111U A120C A145U C169A U176C | 0.0235
C82A A111U A120C A145U C169A U176G | 0.00804
C82A A111U A120C A145U C169A U176A | 0.0227
